“And” between values parts separate entries of the source, which are not always exact repeats. Equal values may be shown once. Read-outs that look alike come from different tables or passages of the source.
Experiments:
[1] = target: FusC(E83A) mutant, catalytically inactive (Pectobacterium (species and strain of the cloned gene not stated)); experiment: ITC; ferredoxin (200 uM) titrated in 10 ul steps, 27 titrations, into the chamber with FusC(E83A) (20 uM); 20 mM HEPES, 50 mM NaCl pH 7.5; MicroCal VP-ITC; 299.15 K (Table 2); parameters from the average of the two best of three reactions
[2] = target: FusC(E83A) mutant, catalytically inactive (Pectobacterium (species and strain of the cloned gene not stated)); experiment: as above; remark: listed apart in the source

ferredoxin from the plant Arabidopsis thaliana (from UniProt P16972 53-145) (natural protein)
Kd [1]: 1900 nM | Ka [2]: 452000 M⁻¹ and 805000 M⁻¹ and 629000 M⁻¹ | Kd [2]: 1240 nM and 1730 nM and 2210 nM | dH [2]: -5.2 kcal/mol and -4.91 kcal/mol and -5.06 kcal/mol | stoichiometry N [2]: 1.12 and 1.06 and 1.09

From PMC6071955
